Assay results published in the supplement of paper PMC11908140.

B1: library; numbered along this chain (parent)
chain: MRKPRAAVGSGHRKQAASQEGRQKHAKNNSQAKPSACDGLARQPEEVVLQASVSSYHLFRDVAEVTAFRGSLLSWYDQEKRDLPWRRRAEDEMDLDRRAYAVWVSEVMLQQTQVATVINYYTGWMQKWPTLQDLASASLEEVNQLWAGLGYYSRGRRLQEGARKVVEELGGHMPRTAETLQQLLPGVGRYTAGAIASIAFGQATGVVDGNVARVLCRVRAIGADPSSTLVSQQLWGLAQQLVDPARPGDFNQAAMELGATVCTPQRPLCSQCPVESLCRARQRVEQEQLLASGSLSGSPDVEECAPNTGQCHLCLPPSEPWDQTLGVVNFPRKASRKPPREESSATCVLEQPGALGAQILLVQRPNSGLLAGLWEFPSVTWEPSEQLQRKALLQELQRWAGPLPATHLRHLGEVVHTFSHIKLTYQVYGLALEGQTPVTTVPPGARWLTQEEFHTAAVSTAMKKVFRVYQGQQPGTCMGSKRSQVSSPCSRKKPRMGQQVLDNFFRSHISTDAHSLNSAAQ

Variants of: B1
Assay: 8OG:A repair function score (normalized; synonymous = 0, nonsense = -1) (normalized log-likelihood score); higher = more repair activity (WT-like)
Conditions: with 8OG:A DNA repair reporter (GFP) in HEK-293 MUTYH KO cells
Summary of the method: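 MUTYH knockout HEK-293 cells carrying lentiviral MUTYH cDNA NNN codon-scan libraries were grown with 10 pg/ml doxycycline and co-transfected with mCherry and a GFP reporter of 8OG:A repair. Viable mCherry+ cells were sorted at 72 h into GFP+ (repair) and GFP− bins, with three replicates per tile, and tile amplicons were sequenced. Rosace fitness scores for each tile were turned into a normalized repair function score anchored on the synonymous and nonsense distributions. Synonymous medians were set to 0 and nonsense medians to -1, and variants below 300 counts per million at the start were dropped.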

Row | Variant | 8OG:A repair function score
1 | MRKPRAAVGSGHRKQAASQEGRQKHAKNNSQAKPSACDGLARQPEEVVLQASVSSYHLFRDVAEVTAFRGSLLSWYDQEKRDLPWRRRAEDEMDLDRRAYAVWVSEVMLQQTQVATVINYYTGWMQKWPTLQDLASASLEEVNQLWAGLGYYSRGRRLQEGARKVVEELGGHMPRTAETLQQLLPGVGRYTAGAIASIAFGQATGVVDGNVARVLCRVRAIGADPSSTLVSQQLWGLAQQLVDPARPGDFNQAAMELGATVCTPQRPLCSQCPVESLCRARQRVEQEQLLASGSLSGSPDVEECAPNTGQCHLCLPPSEPWDQTLGVVNFPRKASRKPPREESSATCVLEQPGALGAQILLVQRPNSGLLAGLWEFPSVTWEPSEQLQRKALLQELQRWAGPLPATHLRHLGEVVHTFSHIKLTYQVYGLALEGQTPVTTVPPGKRWLTQEEFHTAAVSTAMKKVFRVYQGQQPGTCMGSKRSQVSSPCSRKKPRMGQQVLDNFFRSHISTDAHSLNSAAQ [A445K] | -0.464
2 | MRKPRAAVGSGHRKQAASQEGRQKHAKNNSQAKPSACDGLARQPEEVVLQASVSSYHLFRDVAEVTAFRGSLLSWYDQEKRDLPWRRRAEDEMDLDRRAYAVWVSEVMLQQTQVATVINYYTGWMQKWPTLQDLASASLEEVNQLWAGLGYYSRGRRLQEGARKVVEELGGHMPRTAETLQQLLPGVGRYTAGAIASIAFGQATGVVDGNVARVLCRVRAIGADPSSTLVSQQLWGLAQQLVDPARPGDFNQAAMELGATVCTPQRPLCSQCPVESLCRARQRVEQEQLLASGSLSGSPDVEECAPNTGQCHLCLPPSEPWDQTLGVVNFPRKASRKPPREESSATCVLEQPGALGAQILLVQRPNSGLLAGLWEFPSVTWEPSEQLQRKALLQELQRWAGPLPATHLRHLGEVVHTFSHIKLTYQVYGLALEGQTPVTTVPPGARWLTQEEFHTAAVSTAMKKVFRVYQSQQPGTCMGSKRSQVSSPCSRKKPRMGQQVLDNFFRSHISTDAHSLNSAAQ [G471S] | 0.0169
3 | MRKPRAAVGSGHRKQAASQEGRQKHAKNNSQAKPSACDGLARQPEEVVLQASVSSYHLFRDVAEVTAFRGSLLSWYDQEKRDLPWRRRAEDEMDLDRRAYAVWVSEVMLQQTQVATVINYYTGWMQKWPTLQDLASASLEEVNQLWAGLGYYSRGRRLQEGARKVVEELGGHMPRTAETLQQLLPGVGRYTAGAIASIAFGQATGVVDGNVARVLCRVRAIGADPSSTLVSQQLWGLAQQLVDPARPGDFNQAAMELGATVCTPQRPLCSQCPVESLCRARQRVEQEQLLASGSLSGSPDVEECAPNTGQCHLCLPPSEPWDQTLGVVNFPRKASRKPPREESSATCVLEQPGALGAQILLVQRPNSGLLAGLWEFPSVTWEPSEQLQRKALLQELQRWAGPLPGTHLRHLGEVVHTFSHIKLTYQVYGLALEGQTPVTTVPPGARWLTQEEFHTAAVSTAMKKVFRVYQGQQPGTCMGSKRSQVSSPCSRKKPRMGQQVLDNFFRSHISTDAHSLNSAAQ [A405G] | -0.0383
4 | MRKPRAAVGSGHRKQAASQEGRQKHAKNNSQAKPSACDGLARQPEEVVLQASVSSYHLFRDVAEVTAFRGSLLSWYDQEKRDLPWRRRAEDEMDLDRRAYAVWVSEVMLQQTQVATVINYYTGWMQKWPTLQDLASASLEEVNQLWAGLGYASRGRRLQEGARKVVEELGGHMPRTAETLQQLLPGVGRYTAGAIASIAFGQATGVVDGNVARVLCRVRAIGADPSSTLVSQQLWGLAQQLVDPARPGDFNQAAMELGATVCTPQRPLCSQCPVESLCRARQRVEQEQLLASGSLSGSPDVEECAPNTGQCHLCLPPSEPWDQTLGVVNFPRKASRKPPREESSATCVLEQPGALGAQILLVQRPNSGLLAGLWEFPSVTWEPSEQLQRKALLQELQRWAGPLPATHLRHLGEVVHTFSHIKLTYQVYGLALEGQTPVTTVPPGARWLTQEEFHTAAVSTAMKKVFRVYQGQQPGTCMGSKRSQVSSPCSRKKPRMGQQVLDNFFRSHISTDAHSLNSAAQ [Y152A] | -0.881
5 | MRKPRAAVGSGHRKQAASQEGRQKHAKNNSQAKPSACDGLARQPEEVVLQASVSSYHLFRDVAEVTAFRGSLLSWYDQEKRDLPWRRRAEDEMDLDRRAYAVWVSEVMLQQTQVATVINYYTGWMQKWLTLQDLASASLEEVNQLWAGLGYYSRGRRLQEGARKVVEELGGHMPRTAETLQQLLPGVGRYTAGAIASIAFGQATGVVDGNVARVLCRVRAIGADPSSTLVSQQLWGLAQQLVDPARPGDFNQAAMELGATVCTPQRPLCSQCPVESLCRARQRVEQEQLLASGSLSGSPDVEECAPNTGQCHLCLPPSEPWDQTLGVVNFPRKASRKPPREESSATCVLEQPGALGAQILLVQRPNSGLLAGLWEFPSVTWEPSEQLQRKALLQELQRWAGPLPATHLRHLGEVVHTFSHIKLTYQVYGLALEGQTPVTTVPPGARWLTQEEFHTAAVSTAMKKVFRVYQGQQPGTCMGSKRSQVSSPCSRKKPRMGQQVLDNFFRSHISTDAHSLNSAAQ [P129L] | -0.577
6 | MRKPRAAVGSGHRKQAASQEGRQKHAKNNSQAKPSACDGLARQPEEVVLQASVSSYHLFRDVAEVTAFRGSLLSWYDQEKRDLPWRRRAEDEMDLDRRAYAVWVSEVMLQQTQVATVINYYTGWMQKWPTLQDLASASLEEVNQLWAGLGYYSRGRRLQEGARKVVEELGGHMPRTAETLQQLLPGVGRYTAGAIASIAFGQATGVVDGNVARVLCRVRAIGADPSSTLVSQQLWGLAQQLVDPARPGDFNQAAMELGATVCTPQRPLCSQCPVESLCRARQRVEQEQLLASGSLSGSPDVEECAPNTGQCHLCLPPSEPWDQTLGVVNFPRKASRKPPREESSATCVLEQPGALGAQILLVQRPNSGLLAGLWEFPSVTWEPSEQLQRLALLQELQRWAGPLPATHLRHLGEVVHTFSHIKLTYQVYGLALEGQTPVTTVPPGARWLTQEEFHTAAVSTAMKKVFRVYQGQQPGTCMGSKRSQVSSPCSRKKPRMGQQVLDNFFRSHISTDAHSLNSAAQ [K390L] | -0.0847
